Results reported in patent US12697350B2, “Methods and compositions for treating a premature termination codon-mediated disorder” (Tevard Biosciences, Inc., priority 2019, dated 2026).
Entries after “also recorded” stand apart in the source; their conditions may differ.

How the values were obtained:
EGFP-R96X-TGA reporter = test: Flanking sequence length (TABLE 11 vectors Flank300/20/10/0), EGFP-R96X-TGA reporter, Neuro-2a cells (FIGS. 26A-B); format: cell-based, mouse; conditions: single copy, Flank0 vector (random sequence 5′ to tRNA), ~24 hours post transfection
Protocol: “GFP-PTC” indicates cells transfected with the EGFP-R96X-TGA reporter alone (SEQ ID NO: 31), “GFP” indicates cells transfected with a version of the EGFP reporter that lacks a PTC. Readthrough activity was measured by flow cytometry at ~24 hours post transfection. Data are presented as histograms displaying the frequency distribution of the data versus fluorescence intensity for cells expressing EGFP above background.
Expression vectors were generated that encoded an EGFP-R96X-TGA reporter (SEQ ID NO: 31, as described in Example 1) and a single copy of the ArgTCA suppressor tRNA #115 (tRNA-Arg-TCT-2-1-TCA-SUP_no intron, SEQ ID NO: 18, as described in Example 1). The expression vectors included sequences immediately 5′ and 3′ to the tRNA coding sequence that were in each instance derived from the genomic DNA that is 5′ and 3′ to the mouse tRNA-Arg-TCG-1-1 gene but were of varying length.
The expression vectors in TABLE 11 were tested for PTC readthrough activity by flow cytometry in Neuro-2a cells. Transfections were performed using the Lipofectamine 3000 Transfection Reagent according to the manufacturer's protocol.

[1] = test system: mouse SCN1A with an Arg(R)-to-TGA PTC (R1407X) and 3×FLAG tag; test: Rescue of full-length SCN1A protein expression, anti-FLAG Western blot, Flp-In-293 cells (FIGS. 37-39); format: cell-based, human
Excerpt: FIG. 37A is a Western blot depicting rescue of full-length SCN1A protein expression by a suppressor tRNA. Flp-In-293 cells were transfected with an expression construct containing mouse SCN1A with an Arg(R)-to-TGA PTC (R1407X) and a 3×FLAG tag peptide (DYKDHD-G-DYKDHD-I-DYKDDDDK) at the C-terminus (SEQ ID NO: 899) (“SCN1a (R1407*)”) and either (i) co-transfected with an expression construct containing the ArgTCA suppressor tRNA #115 (SEQ ID NO: 18) (“Arg>TGA #115”), or (ii) treated with ataluren at the indicated concentration, (iii) treated with gentamicin at the indication concentration, or (iv) treated with G418 at the indicated concentration. “SCN1a (w.t.)” indicates cells transfected with an expression construct containing wild-type mouse SCN1A and a 3×FLAG tag peptide at the C-terminus (SEQ ID NO: 898). Protein was isolated at 24 hours post transfection and SCN1A was detected using a monoclonal anti-FLAG M2 antibody. Molecular weights based on protein molecular weight markers are indicated to the left of the gel. The intensity of bands corresponding to the size of full-length SCN1A protein was measured using ImageJ and all intensity values were normalized to wild-type SCN1A protein (“SCN1a (w.t.)” lane). Cells co-transfected with expression vectors containing mutant SCN1A and the ArgTCA suppressor tRNA expressed greater than 70% of the full-length SCN1A expressed by cells transfected with an expression construct containing wild-type SCN1A.
FIG. 38A is a Western blot depicting rescue of full-length SCN1A protein expression by suppressor tRNAs. Flp-In-293 cells were co-transfected with (i) an expression construct containing mouse SCN1A with an Arginine-to-TGA PTC (R1407X) and a 3×FLAG tag peptide (DYKDHD-G-DYKDHD-I-DYKDDDDK) at the C-terminus (SEQ ID NO: 899) (“SCN1a (R1407*)”) and (ii) either the #104 ArgTCA suppressor tRNA (SEQ ID NO: 6) (“Sup #104”), the #106 ArgTCA suppressor tRNA (SEQ ID NO: 8) (“Sup #106”), or the ArgTCA suppressor tRNA #115 (SEQ ID NO: 18) (“Sup #115”). “SCN1a (w.t.)” indicates cells transfected with an expression construct containing wild-type mouse SCN1A and a 3×FLAG tag peptide at the C-terminus (SEQ ID NO: 898). Protein was isolated at 24 hours post transfection and SCN1A was detected using a monoclonal anti-FLAG M2 antibody. Molecular weights based on protein molecular weight markers are indicated to the left of the gel. The intensity of bands corresponding to the size of full-length SCN1A protein was measured using ImageJ and all intensity values were normalized to wild-type SCN1A protein (“SCN1a (w.t.)” lane). Cells co-transfected with expression vectors containing mutant SCN1A and the ArgTCA suppressor tRNA expressed greater than 30% (Sup #104), greater than 60% (Sup #106), or greater than 70% (Sup #115) of the full-length SCN1A expressed by cells transfected with an expression construct containing wild-type SCN1A.
FIG. 39A is a Western blot depicting rescue of full-length SCN1A protein expression by a suppressor tRNA. Flp-In-293 cells were cultured in 6-well cell culture plates and co-transfected with (i) an expression construct containing mouse SCN1A with an Arginine-to-TGA PTC (R1407X) and a 3×FLAG tag peptide (DYKDHD-G-DYKDHD-I-DYKDDDDK) at the C-terminus (SEQ ID NO: 899) (“SCN1a (R1407*)”) and (ii) the ArgTCA suppressor tRNA #115 (SEQ ID NO: 18) (“Arg>TGA #115”) at the indicated concentrations. 1× indicates 400 ng of the ArgTCA suppressor tRNA construct per well, 0.3× indicates 133 ng of the ArgTCA suppressor tRNA construct per well, 0.1× indicates 40 ng of the ArgTCA suppressor tRNA construct per well, and 0.03× indicates 13 ng of the ArgTCA suppressor tRNA construct per well. “SCN1a (w.t.)” indicates cells transfected with an expression construct containing wild-type mouse SCN1A and a 3×FLAG tag peptide at the C-terminus (SEQ ID NO: 898). Protein was isolated at 24 hours post transfection and SCN1A was detected using a monoclonal anti-FLAG M2 antibody. […]

B1: tRNA-Arg-TCT-2-1-TCA-SUP_no intron (nucleic acid)
chain: GGCTCCGTGGCGCAATGGATAGCGCATTGGACTTCAAATTCAAAGGTTCCGGGTTCGAGTCCCGGCGGAGTCG
modifications: chemistry not fully specified
suppressor tRNA activity with random 5′ leader sequence (EGFP-R96X-TGA reporter): exhibits activity even with a random 5′ leader sequence
rescue of full-length SCN1A protein expression over dose range ([1]; 13 to 400 ng suppressor tRNA construct per well, 6-well plate (FIG. 39)): able to rescue full-length SCN1A protein expression over a broad dose range
full-length SCN1A expressed, relative to cells transfected with wild-type SCN1A construct ([1]; Flp-In-293, 24 hours post transfection, Western blot band intensity (ImageJ) normalized to wild-type SCN1A): greater than 70%
rescue of full-length SCN1A protein expression ([1]; Flp-In-293, SCN1A R1407X-3×FLAG, Western blot, 24 hours post transfection): able to rescue full-length SCN1A protein expression; also recorded: rescued full-length SCN1A protein expression
